According to patent US20260234242A1 (HAINAN SIMCERE ZAIMING PHARMACEUTICAL, published 2026):

T1: human CDH6 on tumor cells (OVCAR3 cells, PA-1 cells) (human, UniProt P55285 54-790)
T1 sequence: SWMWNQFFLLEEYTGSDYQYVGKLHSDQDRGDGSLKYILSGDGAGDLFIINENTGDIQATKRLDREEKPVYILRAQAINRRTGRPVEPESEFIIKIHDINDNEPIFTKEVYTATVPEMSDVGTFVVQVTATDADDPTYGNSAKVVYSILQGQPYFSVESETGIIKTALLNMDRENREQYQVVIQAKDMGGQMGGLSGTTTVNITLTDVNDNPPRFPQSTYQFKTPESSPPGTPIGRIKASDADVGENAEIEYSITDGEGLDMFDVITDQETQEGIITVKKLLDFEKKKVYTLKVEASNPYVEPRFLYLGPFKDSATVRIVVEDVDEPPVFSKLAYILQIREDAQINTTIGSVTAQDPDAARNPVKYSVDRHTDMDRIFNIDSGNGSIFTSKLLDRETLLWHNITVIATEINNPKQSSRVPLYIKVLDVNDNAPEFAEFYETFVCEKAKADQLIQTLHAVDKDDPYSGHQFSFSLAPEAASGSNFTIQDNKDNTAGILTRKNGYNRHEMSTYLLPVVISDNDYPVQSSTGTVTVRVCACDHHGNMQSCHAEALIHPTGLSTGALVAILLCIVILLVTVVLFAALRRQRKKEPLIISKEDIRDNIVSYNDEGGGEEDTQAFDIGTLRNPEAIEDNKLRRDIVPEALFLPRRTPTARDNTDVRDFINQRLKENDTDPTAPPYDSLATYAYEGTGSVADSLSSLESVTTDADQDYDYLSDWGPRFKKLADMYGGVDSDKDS

T2: monkey CDH6 protein (cynoCDH6 ECD-his) (monkey (cyno), UniProt A0A2K5TW62 19-615)
T2 construct: range 19-615; also called Cyno CDH6-his; not shown: his tag
T2 sequence: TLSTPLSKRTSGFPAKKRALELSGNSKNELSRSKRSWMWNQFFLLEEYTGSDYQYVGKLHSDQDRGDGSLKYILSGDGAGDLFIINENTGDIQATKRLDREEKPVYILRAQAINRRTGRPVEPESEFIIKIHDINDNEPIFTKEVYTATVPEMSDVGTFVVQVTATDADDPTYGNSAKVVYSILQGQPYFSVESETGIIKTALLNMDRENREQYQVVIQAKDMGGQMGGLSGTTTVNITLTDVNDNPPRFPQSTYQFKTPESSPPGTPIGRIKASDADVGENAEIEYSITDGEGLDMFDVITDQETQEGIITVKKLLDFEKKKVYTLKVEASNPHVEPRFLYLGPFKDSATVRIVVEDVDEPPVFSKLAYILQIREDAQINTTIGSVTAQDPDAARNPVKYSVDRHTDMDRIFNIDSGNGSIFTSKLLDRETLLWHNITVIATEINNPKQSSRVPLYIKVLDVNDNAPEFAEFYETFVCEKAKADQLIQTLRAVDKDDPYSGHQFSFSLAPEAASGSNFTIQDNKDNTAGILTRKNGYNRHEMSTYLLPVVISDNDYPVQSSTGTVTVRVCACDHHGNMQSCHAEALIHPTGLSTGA

B1: CHI-CDH6-6 (antibody, human IgG1, kappa, V domains shown)
VH: EVQLQQSGPELVKPGDSVKMSCKASGYTFTDYYMAWVRQSHRKSLEWIGYIFPNSGGTDYSQKFKGKATLTVDKSSSTVYMELHSLTSEDSAVYYCARELGADYGDYYAMDHWGQGTSVSVSS
VL: DIQMTQSPASLSASVGETVTITCRASENIDSYLAWYQQKQGKSPQLLVYSATLLADGVPSRFSGSGSGTQYSLKINSLKSEDVARYYCQHYYRTPPTFGSGTKLEIKR
notes: also called CHI-hCDH6-6; chimeric antibody of murine CDH6-6
B2: CHI-CDH6-7 (antibody, human IgG1, kappa, V domains shown)
VH: EVKLVESGGGLVKPGGSLKVSCAASGFTFSDHGMAWVRQAPGKGPEWVAFISNLAYSIYYADTVTGRFTISRENAKNTLYLEMSSLRSEDTAMYYCARVYVKWYFDVWGAGTTVTVSS
VL: DIQMTQSPASLSASVGETVTITCRASENIDSYLAWYQQKQGKSPQLLVFAATLLADGVPSRFSGSGSGTQYSLKINSLQSEDVARYYCQHYYSTPLTFGAGTKLELKR
notes: also called CH1-CDH6-7; chimeric antibody of murine CDH6-7
B3: CHI-CDH6-8 (antibody, human IgG1, kappa, V domains shown)
VH: EVQLQQSGPELVKPGDSVKMSCKASGYTFTDYYMAWIKQNHGKSLEWIGYIYPNNGGTDYNQKFRGKATLTVDKSSSAAYMELHSLTSEDSAVYYCAREIGTLYGDYYAMDYWGQGTSVTVSS
VL: DIQMTQSPASLSASVGETVTITCRASENIDSYLAWYQQKQGKSPQLLVYTATLLADGVPSRFSGSGSGTQYSLKINSLQSEDVARYYCQHYYSTPPTFGSGTKLEIKR
notes: also called chimeric antibody of murine CDH6-8
B4: CHI-CDH6-11 (antibody, human IgG1, kappa, V domains shown)
VH: QIQLQQSGPELVKPGASVRISCKASGYTFTDYYITWVKLRPGQGLEWIGWIYPGSVNIKYNEKFKGKATLTVDTSSSTAYMQLNSLTSEDSAVYFCARGGYSWFPYWGQGTLVTVSA
VL: NIVMTQSPKSMSMSVGERVTLSCKASENVHTYVSWYQQKPEQSPKLLFYGASTRNTGVPDRFTGSGSATDFTLTISSVQAEDLADYYCGQSYSYPYTFGSGTKLEIKR
notes: also called chimeric antibody of murine CDH6-11
B5: CHI-CDH6-2 (antibody, human IgG1, kappa, V domains shown)
VH: EVQLQQSGPELVKPGASVRISCKASGYTFTDYYMNWVKQSHGKSLEWIGDIDPNNANTTYNQKFKGKATLTVDKSSSTAYMELRSLTSEDSAVYSCASFGYDVEWFGYWGQGTLVTVSA
VL: QIVLTQSPALMSASPGEKVTMTCSASSSVSYMYWYQQKPRSSPKPWIYLTSNLASGVPARFSGSGSGTSYSLTISSMEAEDAATYYCQQWSSNPFTFGSGTKLEIKR
notes: also called chimeric antibody of murine CDH6-2
B6: CHI-CDH6-1 (antibody, human IgG1, kappa, V domains shown)
VH: QVQLQQPGAELVRPGSSVKLSCKASGYTFTNYWMHWVKQRPIEGLEWIGDIDPSHSETHYTQKFKDKATLTVDKSSSTAYMQLSSLTSEDSAVYYCARGDLGRFDYWGQGTTLTVSS
VL: DIVLTQSPASLAVSLGQRATISCRASESVSIHGTHLMHWYQQKSGQPPKLLIYAASNLESGVPARFSGSGSETDFTFNIHPVEEEDAATYFCQQSFEDPWTFGGGTKLEIKR
notes: also called CHI-hCDH6-1; CH1-CDH6-1
B7: CHI-CDH6-10 (antibody, human IgG1, kappa, V domains shown)
VH: QVQLQQPGAELVKPGTSVKMSCKASGYTFTSDWIAWVKQRPGQGLEWIGDIYPGSGRTHNNEKFNFKATLTVDTSSNTAYMQLSSLTSEDSAVYFCARPMLGRFDYWGQGTTLTVSS
VL: DIVLTQSPASLAVSLGQRATISCRASESVSIHGTHLMHWYQQKPGQPPKLLIYAASNLESGVPARFSGSGSETDFTLNIHPVEEEDAATYFCQQSFEDPFTFGSGTKLEIKR
notes: also called chimeric antibody of murine CDH6-10
B8: CHI-CDH6-3 (antibody, human IgG1, kappa, V domains shown)
VH: QVQLQQPGAELVKPGASVKLSCKASGYTFTSYWIHWVKQRPGQGLEWIGEINPSNGVTNCNENFKSKATLTVDKSSSTAYMQLSSLTSEDSAVYYCTIPNLLWWYFDVWGAGTTVTVSS
VL: DIQMTQSPASLSVSVGETVTITCRASENIYSNLAWYQQKQGKSPQLLVYEATNLADGVPSRFSGSGSGTQYSLKINSLQSEDFGSYYCQHFWGTLWTFGGGTKLEIKR
notes: also called CH1-CDH6-3; chimeric antibody of murine CDH6-3
B9: CHI-CDH6-5 (antibody, human IgG1, kappa, V domains shown)
VH: QVQLQQSGAELVRPGTSVKMSCKAAEYTFTNYWIGWVKQRPGHGLEWIGDLYPGGDHANYNEKFEGKATLTADTSSSTAYMQLSSLTSEDSAIYYCARGMLTTGFDSWGQGTTLTVSS
VL: DIVMSQSPSSLAVSAGEKVTMSCKSSQSLFNSRTRKNYLAWYQQKPGQSPKLLIYWASTRESGVPDRFTGSGSGTDFTLTISSVQAEDLAVYYCKQSYYLRTFGGGTKLEIKR
notes: also called CH1-CDH6-5; chimeric antibody of murine CDH6-5
B10: CHI-CDH6-4 (antibody, human IgG1, kappa, V domains shown)
VH: QVQLQQSGPELVKPGASVKISCKASGYAFSNFWMNWVKQRPGKGLEWIGWIYPGDGDTNYNGKFKDKATLTADKSSSTAYIQLSSLTSEDSAVYFCARLYDAWGFFDYWGQGTTLTVSS
VL: QIVLTQSPAIMSASPGQKVTITCSASSSVNYMHWYQQKLGSSPKLWIYDKSKLAPGVPARFSGSGSGTSYSLTISSMEAEDAASYFCHQWSSYPPMTFGGGTKLEIKR
notes: also called CH1-CDH6-4; chimeric antibody of murine CDH6-4
B11: CHI-CDH6-9 (antibody, human IgG1, kappa, V domains shown)
VH: QVQLQQPGAELVKPGASVKLSCKASGYTFTGYWMHWVRQRPGQGLEWIGEINPNNGGTNCNEQFKNKATLTVDKSSSTAYMQLSSLTSEDSAVFYCTISFGNYLFFDVWGAGTTVTVSS
VL: DIQMTQSPASLAASVGETITITCQASENIYFSLAWYQQKQGKSPQLLIYNANTLEDGVPSRFVGSGSGTQYSMKINSIQPEDTATYFCDQTYDFPWTFGGGTKLEIKR
notes: also called chimeric antibody of murine CDH6-9

How the values were obtained:
[1] = target: T1, human CDH6 on tumor cells (OVCAR3 …); test: FACS, PA-1 cells
Procedure: OVCAR3 cells with high expression of CDH6 and PA-1 cells with moderate expression of CDH6 were used to detect the binding activity of the antibodies to the cells. […] The cells were washed once with PBS, counted, resuspended to 2×10⁶ cells/mL in an FACS buffer (PBS+2% FBS), and then added to a 96-well plate at 50 μL/well. The chimeric antibodies were diluted with FACS buffer (PBS+2% FBS) and added to the 96-well plate at 50 μL/well, and the plate was incubated at 4° C. for 1 h. […] The dilution was added to the 96-well plate at 50 μL/well, and the plate was incubated at 4° C. for 1 h. After the plates were centrifuged and washed 2 times with PBS, the cells were resuspended in an FACS buffer. The mean fluorescence intensity (MFI) was measured using FACS Canton II (BD). Analysis was performed by the GraphPad Prism software, data were fitted, and EC50 values were calculated. The chimeric antibodies tested had strong binding to both OVCAR3 cells and PA-1 cells.

[2] = target: T2, monkey CDH6 protein (cynoCDH6 ECD-his); test: ELISA, coated antigen
Procedure: Human CDH6 protein (hCDH6 ECD-his, conventionally synthesized), monkey CDH6 protein (cynoCDH6 ECD-his, conventionally synthesized; the cynoCDH6 ECD sequence was derived from Uniprot #A0A2K5TW62 (19-615)), and murine CDH6 protein (mCDH6 ECD-his, conventionally synthesized; the mCDH6 ECD sequence was derived from Uniprot #P97326 (19-615)) were diluted with PBS to a final concentration of 1 μg/mL, and added to a 96-well ELISA plate at 100 μL/well. The plate was incubated at 4° C. overnight. The next day, the plate was washed 3 times with a plate washing solution (PBS+0.01% (v/v) Tween 20), and a blocking buffer (PBS+0.01% (v/v) Tween 20+2% (w/w) BSA) was added for blocking at room temperature for 2 h. The blocking buffer was discarded, and the plate was washed 3 times. The chimeric antibodies were diluted with 1% BSA+PBS (purchased from Cytiva, Cat. No. SH30264.01) and added to the 96-well plate at 50 μL/well. After incubation at 37° C. for 2 h, the plate was washed 3 times with a plate washing solution. […] The plate was incubated at 37° C. for 1 h and then washed 5 times with a plate washing solution. A TMB substrate (purchased from Seracare, Cat. No. 5120-0077) was added at 50 μL/well and incubated at room temperature for 10 min, then a stop solution (1.0 N HCl) was added at 50 μL/well. OD450 nm values were read using a microplate reader (Biotek). Analysis was performed by the GraphPad Prism software, data were fitted, and EC50 values were calculated. The chimeric antibodies tested all had strong binding to the human CDH6 protein, the monkey CDH6 protein, and the murine CDH6 protein.

| Binder | EC50 [1] [nM] | Max MFI [1] [MFI] | EC50 [2] [nM] | Max OD450 [2] [OD450] |
| --- | --- | --- | --- | --- |
| B1 | 0.43 | 4630 | 0.03 | 2.24 |
| B2 | 7.57 | 2470 | 0.178 | 2.05 |
| B3 | 0.23 | 4710 | 0.026 | 2.12 |
| B4 | 1.78 | 4690 | 0.032 | 2.32 |
| B5 | 0.2 | 4760 | 0.022 | 2.12 |
| B6 | 0.1 | 4390 | 0.023 | 2.54 |
| B7 | 0.08 | 4070 | 0.026 | 2.26 |
| B8 | 0.13 | 3870 | 0.041 | 2.64 |
| B9 | 0.49 | 4560 | 0.046 | 1.96 |
| B10 | 2.48 | 3990 | 0.034 | 2.23 |
| B11 | 0.16 | 4400 | 0.026 | 2.78 |
